The source of these data is US20240294945.

Common to all, as to assay: cell_activity
Data set [1] has as its system 16S rDNA cp-DdCBE right (synthetic). The following applies: pair, mRNA in lettuce protoplasts.
Data set [2] relates to mouse ND5 silent DdCBE right (synthetic). The conditions noted are these: pair, NIH3T3.
Data set [3] has as its system 16S rDNA cp-DdCBE left (synthetic). The conditions noted are these: pair, mRNA in lettuce protoplasts.
Data set [4] has as its target ND4 TALE-TadA* (synthetic) (UniProt P14727). The conditions noted are these: A-to-G editing.
In data set [5] the target is mDdCBE ND4 TALE-GSVG DddAtox (synthetic) (UniProt P14727). The conditions noted are these: monomeric full-length DddAtox.
Data set [6] concerns the target mDdCBE ND4 TALE-E1347A DddAtox (synthetic) (UniProt P14727). The conditions noted are these: monomeric full-length DddAtox.
The subject of data set [7] is ATP6 (lettuce) mt-DdCBE right (synthetic). The conditions noted are these: pair, lettuce protoplasts; first printed repeat NG vs G in site.
For data set [8], the system named is ATP6 mt-DdCBE left (synthetic).

The substance “TGTGCGGGCCCCCGTCAA (double strand) [16S rDNA right TALE site]” returned an activity in data set [1] of less than 25%. “TTAAAATAAAGTTATTATT (double strand) [ND5 silent right TALE site]”: the activity in data set [2] was less than 19%. Consider “GGGGAGTACGTTCGCAAG (double strand) [16S rDNA left TALE site]”, for which the activity in data set [3] is less than 25%.

With ND4 TALE target, the figures for the activity in data set [4], in data set [5] and in data set [6] were less than 0.6%, less than 31% and less than 7.2%, respectively. Consider “GAAAAAATGAAGCCCA (double strand) [ATP6 lettuce right TALE site]”, for which the activity in data set [7] was 23%. Turning to “TATTGGCATTACTATAG (double strand) [ATP6 left TALE site]”, the activity in data set [8] was 23%.
